Starred links: 1 amine or outer side, 2 acyl side, 3 side chain; linkers in the order of their positions; H or OH if unused. Positions of bridges follow the written chain, without caps; N, C: chain ends. Non-standard residues stand in square brackets, D forms with d. Primed or numbered codes have the meaning given here. *: point of attachment. PyrS2″ = (S)-3-amino-1-((pent-4-en-1-yloxy)carbonyl)pyrrolidine-3-carboxylic acid (stapling residue), C=CCCCOC(=O)N1CC[C@@](N[*:1])(C(=O)[*:2])C1; TfeGA = (S)-2-amino-3-((carboxymethyl)(2,2,2-trifluoroethyl)amino)propanoic acid, O=C([C@H](CN(CC(=O)[*:3])CC(F)(F)F)N[*:1])[*:2]; PyrS2 = (S)-3-amino-1-((pent-4-en-1-yloxy)carbonyl)pyrrolidine-3-carboxylic acid, C=CCCCOC(=O)N1CC[C@@](N[*:1])(C(=O)[*:2])C1; PyrS1 = (S)-3-amino-1-((but-3-en-1-yloxy)carbonyl)pyrrolidine-3-carboxylic acid, C=CCCOC(=O)N1CC[C@@](N[*:1])(C(=O)[*:2])C1; B5(3) = 2,2-bis(4-pentenyl)glycine (stitching residue), C=CCCCC(CCCC=C)(N[*:1])C(=O)[*:2]; Me3AdamantC = 3,5,7-trimethyladamantane-1-carbonyl, CC12CC3(C)CC(C)(C1)CC(C(=O)*)(C2)C3; Me2NCBz = 4-((dimethylamino)methyl)benzoyl on Lys side chain, CN(C)Cc1ccc(C(=O)*)cc1; B6 = 2-amino-2-(hex-5-en-1-yl)oct-7-enoic acid, C=CCCCCC(CCCCC=C)(N[*:1])C(=O)[*:2]; B5(28) = 2,2-bis(4-pentenyl)glycine, C=CCCCC(CCCC=C)(N[*:1])C(=O)[*:2]; Phe(3-COOH) = N[C@@H](Cc1cccc(C(=O)O)c1)C(=O)O; Phe(2-CF3) = N[C@@H](Cc1ccccc1C(F)(F)F)C(=O)O; Phe(2-Br) = N[C@@H](Cc1ccccc1Br)C(=O)O; Phe(2-Cl) = N[C@@H](Cc1ccccc1Cl)C(=O)O; Bta = N[C@@H](Cc1csc2ccccc12)C(=O)O; αAllylPro = C=CC[C@@]1(C(=O)O)CCCN1; tBuAla = CC(C)(C)C[C@H](N)C(=O)O; 3Thi = N[C@@H](Cc1ccsc1)C(=O)O; AdamantC = not defined here; PyrS2(4) = not defined here; TfeGA″ = not defined here; Octanoyl = CCCCCCCC(=O)*; Butyryl = CCCC(=O)*
T1: B-cat-Halo (UniProt P35222 1-781, HaloTag NanoBRET 618 Ligand bound to the HaloTag in the assay)
T1 sequence (looked up): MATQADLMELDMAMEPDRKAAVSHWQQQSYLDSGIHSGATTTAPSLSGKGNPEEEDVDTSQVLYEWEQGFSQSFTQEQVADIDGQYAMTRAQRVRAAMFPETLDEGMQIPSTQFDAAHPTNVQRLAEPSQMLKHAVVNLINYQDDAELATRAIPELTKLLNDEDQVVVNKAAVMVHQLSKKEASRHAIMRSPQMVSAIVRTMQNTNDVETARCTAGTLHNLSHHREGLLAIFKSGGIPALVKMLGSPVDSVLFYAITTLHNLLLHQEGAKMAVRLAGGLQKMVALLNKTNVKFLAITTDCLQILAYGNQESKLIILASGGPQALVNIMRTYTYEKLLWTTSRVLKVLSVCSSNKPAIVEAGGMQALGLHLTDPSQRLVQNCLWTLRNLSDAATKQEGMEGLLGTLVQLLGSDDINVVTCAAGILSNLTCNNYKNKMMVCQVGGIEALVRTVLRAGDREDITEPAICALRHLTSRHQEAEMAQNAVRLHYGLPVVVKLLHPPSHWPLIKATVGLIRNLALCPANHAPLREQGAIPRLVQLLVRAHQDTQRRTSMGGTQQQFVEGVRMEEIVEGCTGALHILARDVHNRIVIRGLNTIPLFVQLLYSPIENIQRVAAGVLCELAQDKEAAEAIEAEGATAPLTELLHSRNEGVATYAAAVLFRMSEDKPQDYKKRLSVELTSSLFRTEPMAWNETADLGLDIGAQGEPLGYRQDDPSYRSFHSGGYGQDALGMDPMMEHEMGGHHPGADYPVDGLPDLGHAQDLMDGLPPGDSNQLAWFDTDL

T2: B-cat-Halo (beta-catenin HaloTag fusion expressed in HEK293 cells) (UniProt P35222 1-781)
T2 sequence (looked up): T1 sequence (looked up)

B1: I-922 (peptide)
peptide: Ac-[αAllylPro]D[tBuAla][B5(28)]D[TfeGA″]AAFT[PyrS2][Phe(2-Cl)][Bta]Q-NH2
modifications: staple 1-4, 4-11; reading uncertain
B2: I-920 (peptide)
peptide: Ac-[αAllylPro]D[tBuAla][B5(3)]DDAAFN[PyrS2″][3Thi][Bta]QK(Me3AdamantC)-NH2
modifications: staple 1-4, 4-11
B3: I-923 (peptide)
peptide: Ac-[αAllylPro]D[tBuAla][B5(3)]D[TfeGA]AAFF[PyrS2″][Phe(2-Cl)][Bta]Q-NH2
modifications: staple 1-4, 4-11
B4: I-911 (peptide)
peptide: Ac-[αAllylPro]D[tBuAla][B5(3)]DDAAFN[PyrS2″][3Thi][Bta]QK(mPEG2)-NH2
modifications: staple 1-4, 4-11; not fully specified; printed as Ac-PL3-Asp-Npg-B5-Asp-Asp-Ala-Ala-Phe-Asn-PyrS2-3Thi-BztA-Gln-[mPEG2]Lys-NH2
B5: I-924 (peptide)
peptide: Ac-[αAllylPro]D[tBuAla][B5(3)]D[TfeGA]AAFN[PyrS2″][Phe(2-Br)][Bta]Q-NH2
modifications: staple 1-4, 4-11
B6: I-916 (peptide)
peptide: Ac-[αAllylPro]D[tBuAla][B5(3)]DDAAFN[PyrS2(4)][3Thi][Bta]QK(1Napc)-NH2
modifications: staple 1-4, 4-11; reading uncertain; also: printed as Ac-PL3-Asp-Npg-B5-Asp-Asp-Ala-Ala-Phe-Asn-PyrS2-3Thi-BztA-Gln-[1Napc]Lys-NH2
B7: I-918 (peptide)
peptide: Ac-[αAllylPro]D[tBuAla][B5(3)]DDAAFN[PyrS2″][3Thi][Bta]QK(Octanoyl)-NH2
modifications: staple 1-4, 4-11; not fully specified; printed as Ac-PL3-Asp-Npg-B5-Asp-Asp-Ala-Ala-Phe-Asn-PyrS2-3Thi-BztA-Gln-[Oct]Lys-NH2
B8: I-910 (peptide)
peptide: Ac-[αAllylPro]D[tBuAla][B5(3)]DDAAFN[PyrS2″][3Thi][Bta]QK(Me2NCBz)-NH2
modifications: staple 1-4, 4-11
B9: I-915 (peptide)
peptide: Ac-[αAllylPro]D[tBuAla][B5(3)]DDAAFN[PyrS2(4)][3Thi][Bta]QK(2Napc)-NH2
modifications: staple 1-4, 4-11; reading uncertain; also: printed as Ac-PL3-Asp-Npg-B5-Asp-Asp-Ala-Ala-Phe-Asn-PyrS2-3Thi-BztA-Gln-[2Napc]Lys-NH2
B10: I-917 (peptide)
peptide: Ac-[αAllylPro]D[tBuAla][B5(3)]DDAAFN[PyrS2″][3Thi][Bta]QK(Butyryl)-NH2
modifications: staple 1-4, 4-11
B11: I-919 (peptide)
peptide: Ac-[αAllylPro]D[tBuAla][B5(3)]DDAAFN[PyrS2(4)][3Thi][Bta]QK(AdamantC)-NH2
modifications: staple 1-4, 4-11; reading uncertain; also: printed as Ac-PL3-Asp-Npg-B5-Asp-Asp-Ala-Ala-Phe-Asn-PyrS2-3Thi-BztA-Gln-[AdamantC]Lys-NH2
B12: I-2508 (peptide)
peptide: Ac-[αAllylPro]D[tBuAla][B6]D[Phe(3-COOH)]AAFL[PyrS1][Phe(2-CF3)][Bta]Q-NH2
modifications: staple 1-4, 4-11

Target: T1, B-cat-Halo
Assay: cell-based or functional assay

Binder | NanoBRET Abs IC50 [µM]
B1 | 2.7
B2 | 17.7
B3 | 6
B4 | 22.9
B5 | 3.3
B6 | 13.6
B7 | 11.1
B8 | 29.8
B9 | 15.5
B10 | 19.7
B11 | 15.2

Target: T2, B-cat-Halo (beta-catenin HaloTag fusion …)
Assay: cell-based or functional assay

Binder | NanoBRET Abs IC50 [µM]
B12 | 27.3

Source: US20240116985A1 (published 2024)
